The results in this text go back to patent US11767343B2, “Peptide probe for recognition of G-quadruplex and use thereof in detection of G-quadruplex in cell” (Changzhi Medical College, priority 2020, dated 2023).

For the assay, the target named is TB-1. The assay can be described thus: ELISA binding of G4P to immobilized biotinylated oligonucleotide. As to conditions: G4, Bulge, read-out: Kd (nM) ± SD. For orientation: ELISA stands for enzyme-linked immunosorbent assay.

B1: G4P: Polypeptide probe: two RHAU23 G4-binding domains, linker of three GTGSGA hexapeptides, C-terminal 3xFLAG tag, N-terminal HIS tag; SEQ ID NO: 4 (protein)
chain: MGSSHHHHHHSSGLVPRGSHMHPGHLKGREIGMWYAKKQGQKNKGTGSGAGTGSGAGTGSGAHPGHLKGREIGMWYAKKQGQKNKGTGSGADYKDHDGDYKDHDIDYKDDDDK
modifications: Fully synthetic
As a reminder, the Kd is the constant that tells how readily two partners part at equilibrium. With B1, the dissociation constant (Kd) came to 0.74 ± 0.05 nM.
